Tested on: D11-CD8stk-IL2Rg_A5-Hinge-IL2Rb
Sequence (chain, as listed by the source, chain 1 of 2): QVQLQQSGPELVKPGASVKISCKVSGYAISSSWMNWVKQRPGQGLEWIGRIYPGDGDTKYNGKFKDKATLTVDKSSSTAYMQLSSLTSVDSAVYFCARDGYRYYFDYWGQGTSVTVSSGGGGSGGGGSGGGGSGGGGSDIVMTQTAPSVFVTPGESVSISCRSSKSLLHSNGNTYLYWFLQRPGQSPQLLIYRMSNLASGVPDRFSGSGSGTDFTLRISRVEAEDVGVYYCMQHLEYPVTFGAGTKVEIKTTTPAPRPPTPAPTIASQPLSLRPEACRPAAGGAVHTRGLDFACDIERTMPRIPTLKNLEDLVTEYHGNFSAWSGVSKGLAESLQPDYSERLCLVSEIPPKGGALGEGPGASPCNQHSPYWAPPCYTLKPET
Sequence (chain, as listed by the source, chain 2 of 2): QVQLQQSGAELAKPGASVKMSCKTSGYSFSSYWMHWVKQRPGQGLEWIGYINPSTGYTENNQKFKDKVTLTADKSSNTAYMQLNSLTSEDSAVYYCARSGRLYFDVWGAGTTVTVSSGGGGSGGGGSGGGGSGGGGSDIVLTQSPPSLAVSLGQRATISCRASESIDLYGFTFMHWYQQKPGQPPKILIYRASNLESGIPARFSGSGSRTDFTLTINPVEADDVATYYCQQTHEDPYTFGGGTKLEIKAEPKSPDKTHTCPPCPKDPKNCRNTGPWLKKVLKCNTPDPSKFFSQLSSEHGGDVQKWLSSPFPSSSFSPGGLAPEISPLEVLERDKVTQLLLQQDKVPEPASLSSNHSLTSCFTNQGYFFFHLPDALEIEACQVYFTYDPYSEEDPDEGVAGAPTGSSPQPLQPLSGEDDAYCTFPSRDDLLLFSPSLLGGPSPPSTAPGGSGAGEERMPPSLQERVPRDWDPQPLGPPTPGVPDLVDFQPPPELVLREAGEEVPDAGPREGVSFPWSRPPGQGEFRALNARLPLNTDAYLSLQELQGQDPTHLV

Substance: prostate-specific antigen (PSA)
- phosphorylation of Y694 of STAT5 (phosphoflow): In the cells expressing the PSA CCR, the presence of PSA lead to increasing STAT5 phosphorylation with time

Reference: US20220289820
